Test results from PMC5146998.

Target: CTF2 mutant MUT9 (3xFLAG-tagged) (chicken) (UniProt Q90762)
Assay: co-IP

Sequence of UniProt Q90762 (Q90762 637-790, change not shown): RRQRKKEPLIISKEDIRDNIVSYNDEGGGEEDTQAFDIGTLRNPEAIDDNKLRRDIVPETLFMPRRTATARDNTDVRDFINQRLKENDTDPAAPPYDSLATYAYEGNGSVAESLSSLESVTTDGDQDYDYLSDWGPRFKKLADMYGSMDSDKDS

β-catenin (endogenous, LMH cells) (natural protein)
percent inhibition of β-catenin co-immunoprecipitation against wild-type CTF2: 87.5%
